Experimental findings from patent publication US20210196823A1, “Methods of Treating Metabolic Disease” (Pfizer Inc., priority 2018, published 2021) are described below.

One assay concerns Huh7 cells. Put plainly: HAMP and ID1 qRT-PCR in Huh7 cells treated with BMPs with or without mouse ERFE. In kind it is cell-based. The conditions noted are these: a variety of different cell types. The protocol: (b) Gene expression microarray: Microarray analysis of Huh7 cells treated with mouse or human erythroferrone was carried out to test the activity of erythroferrone on the BMP/SMAD signalling pathway. Generally cell treatments were carried out according to the following protocol: Huh7 and HepG2 were cultured in Dulbecco's Modified Eagle's Medium—High Glucose (Sigma), supplemented with 10% Fetal Bovine Serum (Sigma), 1% Penicillin-Streptomycin (Sigma) and 1% L-Glutamine (Sigma), unless otherwise indicated. Cells were plated 24 h before treatments in 24-well (gene expression analysis) or 12-well (protein analysis) cell culture plates. At the time of treatment, cells were washed with PBS and fresh media was added.
(c) RNA isolation, cDNA synthesis and qRT-PCR: Suppression of several BMP-target genes: HAMP, ID1, ID3, SMAD6 and SMAD7 was further confirmed by qRT-PCR. Cells were lysed and RNA was isolated using the RNeasy Plus kit (Qiagen), followed by RNA quantification and quality assessment using Nanodrop (Thermo Fisher). cDNA was synthesized using the High Capacity RNA-to-cDNA kit (Applied Biosystems). Gene expression was assessed using quantitative real-time PCR with Taqman Gene Expression Master Mix and inventoried Taqman Gene expression assays (Applied Biosystems) specific for the genes of interest according to the manufacturer's instructions. […]
A general note: In qPCR the cycle at which signal appears reflects the starting amount.

Another assay deals with T1, BMP6 (Homo sapiens, UniProt P22004).
T1 sequence (P22004 375-513): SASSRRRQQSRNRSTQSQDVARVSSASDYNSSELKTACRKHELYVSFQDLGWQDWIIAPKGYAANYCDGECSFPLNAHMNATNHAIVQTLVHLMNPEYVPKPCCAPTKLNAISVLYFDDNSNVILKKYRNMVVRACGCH
As to the kind of experiment: Biacore SPR, BMP run against ERFE A4-biotin on CM4 chip. It is filed as binding. From the text:
(§1) Iron absorption is tightly regulated by erythropoietic demand via control of hepcidin expression. Erythropoietin (EPO) causes hepcidin suppression, at least in part by increasing synthesis of the hormone erythroferrone (ERFE). ERFE is produced by erythroblasts after bleeding or EPO treatment, and acts on hepatocytes to suppress hepcidin expression and increase iron availability. ERFE knock out mice fail to suppress hepcidin after phlebotomy and show delayed recovery from blood loss. Furthermore, serum ERFE concentrations are increased in humans after blood loss and EPO administration, and in β-thalassemia patients. Hepcidin expression is modulated via the BMP/SMAD signalling pathway. […] We sought to determine whether the mechanism by which ERFE suppresses hepcidin is through interaction with BMP. Binding constants were measure using Biacore SPR. BMPs 2, 4, 6 at 50 nM was run against ERFE A4-biotin amine coupled to CM4 sensor chip in MES-Tris buffer pH6.0, 25° C.
For orientation: SPR reads the build-up and loss of mass on a sensor chip optically.

The target of a further assay is T2, BMP2 (Homo sapiens, UniProt P12643).
T2 sequence (P12643 283-396): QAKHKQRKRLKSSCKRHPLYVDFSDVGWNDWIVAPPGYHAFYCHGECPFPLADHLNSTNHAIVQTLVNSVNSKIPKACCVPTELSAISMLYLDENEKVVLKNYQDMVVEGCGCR
Described as above. It is filed as binding. The conditions noted are these: BMP 50 nM, MES-Tris buffer pH6.0, 25° C.
Text: as §1

For the next assay, the target named is T3, BMP4 (Homo sapiens, UniProt P12644).
T3 sequence (P12644 293-408): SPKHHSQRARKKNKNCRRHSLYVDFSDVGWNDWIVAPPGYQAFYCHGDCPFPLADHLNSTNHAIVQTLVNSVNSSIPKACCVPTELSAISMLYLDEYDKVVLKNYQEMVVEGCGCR
The assay is described as above. In kind it is binding. The conditions noted are these: BMP 50 nM, MES-Tris buffer pH6.0, 25° C.
Text: as §1

In a further assay the test system is abdominal preadipocytes. Put plainly: Western blot of phospho- and total SMAD1/5/8 in preadipocytes. It is filed as cell-based, Human. The conditions noted are these: abdominal cells, 30 minutes. The protocol:
(a) Primary pre-adipocyte isolation. Human primary pre-adipocytes were prepared by isolation from white adipose tissue (WAT) biopsies taken under local anesthetic (1% lignocaine) by needle aspiration at the level of the umbilicus (ASAT) and from the upper-, outer-quadrant of the gluteal region (GSAT). Primary preadipocytes were isolated from ASAT and GSAT biopsies by mechanically mincing using scissors, washed twice with Hanks' buffered salt solution to remove contaminating blood, and then enzymatically digested in 1 mg/ml collagenase (Roche Applied Science) in Hanks' buffered salt solution in a shaking water bath (90 rpm) at 37° C. for 45 min. The digested tissue was centrifuged at 1000 rpm for 5 min at 4° C. The pellet containing stromal-vascular cells was resuspended in Dulbecco's modified Eagle's medium/F12 Ham's nutrient mixture (v/v, 1:1) containing 17.5 mM glucose and supplemented with 10% foetal calf serum, 0.25 ng/ml fibroblast growth factor, 2 mM glutamine, 100 units/ml penicillin and 100 μg/ml streptomycin. Cell stocks of APAD and GPAD cells were prepared and stored in liquid nitrogen for future studies. […]

B1: ERFE: hormone erythroferrone (FAM132b); recombinant protein, species or construct not stated at the place (SPR used ERFE A4-biotin) (protein)
chain: AAGLGSPEPGAPSRSAAAAEPPPGNELPRGPGESRAGPAARPPEPTAERAHSVDPRDAWMLFVRQSDKGVNGKKRSRGKAKKLKFGLPGPPGPPGPQGPPGPIIPPEALLKEFQLLLKGAVRQRERAEPEPCTCGPAGPVAASLAPVSATAGEDDDDVVGDVLALLAAPLAPGPRAPRVEAAFLCRLRRDALVERRALHELGVYYLPDAEGAFRRGPGLNLTSGQYRAPVAGFYALAATLHVALGEPPRRGPPRPRDHLRLLICIQSRCQRNASLEAIMGLESSSELFTISVNGVLYLQMGQWTSVFLDNASGCSLTVRSGSHFSAVLLGV
Turning to B1, the “inhibitory action on BMP2 and 4 and BMP2/6 heterodimer” value in the assay on Huh7 cells was “Inhibitory action is also seen”. For the same molecule, the “Kd of ERFE binding to BMP6” value in the assay with BMP6 (BMP 50 nM, MES-Tris buffer pH6.0, 25° C.) is reported as “nanomolar”. In addition, in the assay with BMP6 (SPR (Biacore)), the “tightness of ERFE binding among BMPs 2, 4 and 6” value is recorded as “most tightly”. In addition, the “Kd of ERFE binding to BMP2” value with BMP2 is reported as “nanomolar”. The “Kd of ERFE binding to BMP4” value with BMP4 is recorded as “nanomolar”. Besides, in the assay with abdominal preadipocytes, the “BMP2-induced SMAD1/5/8 phosphorylation on addition of ERFE” value is “diminished”.
